Fewer inactive variants are shown than the library holds.
How the values were obtained:
[1] = test system: biotinyl-Phe-oxazolone; assay: self-aminoacylation, catalytic enhancement (BFO) (fold over background); higher = more active; k-Seq, kA / k0A0; sequences stand for … in GGGAAUGGAUCCACAUCUACGAAUUC…UUCACUGCAGACUUGACGAAGCUG
Summary of the method: (§1)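 Each biotinyl-aminoacyl-oxazolone, at 2–1250 μM, was incubated with mutagenized RNA pools (0.43 μM) carrying a 21-nt variable region. The 50 μL reactions contained HEPES/NaCl/KCl/MgCl2/CaCl2 buffer with 5% acetonitrile at pH 6.9–7.0 and ran for 90 minutes at room temperature. After streptavidin capture, RNA was measured by qPCR in triplicate and by Illumina sequencing, and catalytic enhancement was calculated as median kA over the uncatalyzed rate from a pseudo-first-order fit of per-sequence fraction reacted.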

[2] = test system: biotinyl-Ile-oxazolone; assay: self-aminoacylation, catalytic enhancement (BIO) (fold over background); higher = more active; k-Seq, kA / k0A0; sequences stand for … in GGGAAUGGAUCCACAUCUACGAAUUC…UUCACUGCAGACUUGACGAAGCUG
Summary of the method: as §1

[3] = test system: biotinyl-Met-oxazolone; assay: self-aminoacylation, catalytic enhancement (BMO) (fold over background); higher = more active; k-Seq, kA / k0A0; sequences stand for … in GGGAAUGGAUCCACAUCUACGAAUUC…UUCACUGCAGACUUGACGAAGCUG
Summary of the method: as §1

[4] = test system: biotinyl-Val-oxazolone; assay: self-aminoacylation, catalytic enhancement (BVO) (fold over background); higher = more active; k-Seq, kA / k0A0; sequences stand for … in GGGAAUGGAUCCACAUCUACGAAUUC…UUCACUGCAGACUUGACGAAGCUG
Summary of the method: as §1

[5] = test system: biotinyl-Leu-oxazolone; assay: self-aminoacylation, catalytic enhancement (BLO) (fold over background); higher = more active; k-Seq, kA / k0A0; sequences stand for … in GGGAAUGGAUCCACAUCUACGAAUUC…UUCACUGCAGACUUGACGAAGCUG
Summary of the method: as §1

[6] = test system: biotinyl-Trp-oxazolone; assay: self-aminoacylation, catalytic enhancement (BWO) (fold over background); higher = more active; k-Seq, kA / k0A0; sequences stand for … in GGGAAUGGAUCCACAUCUACGAAUUC…UUCACUGCAGACUUGACGAAGCUG
Summary of the method: as §1

| Sequence | self-aminoacylation [1] | self-aminoacylation [2] | self-aminoacylation [3] | self-aminoacylation [4] | self-aminoacylation [5] | self-aminoacylation [6] |
| --- | --- | --- | --- | --- | --- | --- |
| GUUACACUGGUCAUCGAGUGA [Fam2.1 aminoacylation ribozyme variant] | 28.9 | 4.91 | 6.79 | 4.18 | 6.76 | 8.81 |
| GUUACCCCGGUCAUCGAGUGA [Fam2.1 aminoacylation ribozyme variant] | 45.8 | 3.82 | 6.95 | 3.38 | 7.66 | 8.27 |
| GUUACCCUAGUCAUCGAGUGA [Fam2.1 aminoacylation ribozyme variant] | 28.1 | 3.81 | 6.66 | 3.33 | 6.93 | 7.77 |
| GUUACCCUCGUCAUCGAGUGA [Fam2.1 aminoacylation ribozyme variant] | 11 | 2.45 | 4.14 | 2.31 | 3.7 | 4.33 |
| GUUACCCUGGGCAUCGAGUGA [Fam2.1 aminoacylation ribozyme variant] | 68.6 | 4.53 | 8.99 | 4.16 | 8.7 | 10.1 |
| GUUACCCUGGUCAUCGAGCGA [Fam2.1 aminoacylation ribozyme variant] | 5.54 | 2.84 | 4.51 | 3.46 | 4.14 | 4.27 |
| GUUACCCUGGUCAUCGAGUGG [Fam2.1 aminoacylation ribozyme variant] | 402 | 15 | 57.2 | 17.4 | 58.4 | 50 |
| GUUACCCUGGUCAUCUAGUGA [Fam2.1 aminoacylation ribozyme variant] | 78.6 | 5.9 | 12 | 6.05 | 11.7 | 13.4 |
| GUUACCCUGGUCAUUGAGUGA [Fam2.1 aminoacylation ribozyme variant] | 71.3 | 4.72 | 10.2 | 5.29 | 11 | 13 |
| GUUAGCCUGGUCAUCGAGUGA [Fam2.1 aminoacylation ribozyme variant] | 51.9 | 5.11 | 6.67 | 5.04 | 7.66 | 8.56 |
| GUUCACCCAGGUCAUCGGGUG [Fam2.2 aminoacylation ribozyme variant] | 29.1 | 3.12 | 3.77 | 3.64 | 5.02 | 3.77 |
| GUUCACCUAGCUCAUCGGGUG [Fam2.2 aminoacylation ribozyme variant] | 1.08 | 1.55 | 1.64 | 1.91 | 2.06 | 2.86 |
| GUUCACCUAGGCCAUCGGGUG [Fam2.2 aminoacylation ribozyme variant] | 25.4 | 3.17 | 3.77 | 3.86 | 3.61 | 3.64 |
| GUUCACCUAGGUCAUCGGAUG [Fam2.2 aminoacylation ribozyme variant] | 0.879 | 0.815 | 0.701 | 0.979 | 0.728 | 0.5 |
| GUUCACCUAGGUCAUCGGGUA [Fam2.2 aminoacylation ribozyme variant] | 381 | 24.6 | 50.6 | 22.6 | 68.3 | 33.1 |
| GUUCACCUAGGUCAUUGGGUG [Fam2.2 aminoacylation ribozyme variant] | 8.92 | 2.6 | 2.21 | 2.27 | 2.83 | 3.8 |
| GUUCACCUAGGUCCUCGGGUG [Fam2.2 aminoacylation ribozyme variant] | 25.5 | 3.49 | 4.16 | 4.16 | 4.67 | 5.27 |
| GUUCAUCUAGGUCAUCGGGUG [Fam2.2 aminoacylation ribozyme variant] | 35.3 | 4.19 | 5.79 | 3.72 | 7.61 | 7.23 |
| GUUUCCCUGGUCAUCGAGUGA [Fam2.1 aminoacylation ribozyme variant] | 48.7 | 6.97 | 14.6 | 7.85 | 14.8 | 16.2 |
| UAGCUUGCUAAUAGUCGCAAG [Fam3.1 aminoacylation ribozyme variant] | 3.65 | 2.34 | 1.88 | 2.22 | 1.8 | 1.84 |
| UAGGUUGCUAAUAGUCGCAAG [Fam3.1 aminoacylation ribozyme variant] | 1.91 | 1.4 | 1.2 | 1.2 | 1.15 | 2.01 |

| Sequence | self-aminoacylation [1] | self-aminoacylation [2] | self-aminoacylation [3] | self-aminoacylation [4] | self-aminoacylation [5] | self-aminoacylation [6] |
| --- | --- | --- | --- | --- | --- | --- |
| UAGUAUGCUAAUAGUCGCAAG [Fam3.1 aminoacylation ribozyme variant] | 2 | 1.62 | 1.28 | 1.13 | 1.57 | 1.68 |
| UAGUUUGCUAAAAGUCGCAAG [Fam3.1 aminoacylation ribozyme variant] | 3.92 | 1.53 | 1.93 | 1.6 | 1.57 | 3.43 |
| UAGUUUGCUAAUAGUCGCUAG [Fam3.1 aminoacylation ribozyme variant] | 1.68 | 1.18 | 1.01 | 1.13 | 1.13 | 1.08 |
| UAGUUUGCUGAUAGUCGCAAG [Fam3.1 aminoacylation ribozyme variant] | 2.35 | 1.61 | 0.993 | 1.47 | 1.08 | 1.61 |
| UAGUUUGGUAAUAGUCGCAAG [Fam3.1 aminoacylation ribozyme variant] | 2.29 | 1.73 | 1.74 | 1.57 | 1.81 | 1.96 |
| UAGUUUUCUAAUAGUCGCAAG [Fam3.1 aminoacylation ribozyme variant] | 1.6 | 1.52 | 1.25 | 1.23 | 1.3 | 1.59 |
| UCACACUUCAAGCAACCGGUC [Fam1B.1 aminoacylation ribozyme variant] | 1.26 | 0.984 | 0.801 | 1.05 | 0.739 | 0.796 |
| UCACACUUCAAGCAAGCGGUC [Fam1B.1 aminoacylation ribozyme variant] | 0.807 | 0.965 | 1.02 | 1.06 | 0.991 | 0.746 |
| UCACACUUCAAGCAAUCAGUC [Fam1B.1 aminoacylation ribozyme variant] | 17.9 | 0.777 | 0.645 | 0.932 | 0.817 | 5.72 |
| UCACACUUCAAGCCAUCGGUC [Fam1B.1 aminoacylation ribozyme variant] | 0.948 | 1.01 | 1.08 | 1.24 | 1.1 | 0.854 |
| UCACACUUCAUGCAAUCGGUC [Fam1B.1 aminoacylation ribozyme variant] | 0.632 | 0.85 | 0.793 | 0.887 | 0.736 | 0.656 |
| UCACACUUCGAGCAAUCGGUC [Fam1B.1 aminoacylation ribozyme variant] | 1.23 | 0.91 | 0.953 | 1.05 | 0.931 | 1.12 |
| UGUCACCUAGGUCAUCGGGUG [Fam2.2 aminoacylation ribozyme variant] | 23.9 | 3.84 | 4.27 | 3.6 | 3.64 | 5.31 |
| UUACAUCAAACAAUCGGUCUG [Fam1A.1 aminoacylation ribozyme variant] | 3.42 | 1.12 | 1.19 | 1.17 | 1.17 | 2.51 |
| UUACCUCAAACAAUCGGUCUG [Fam1A.1 aminoacylation ribozyme variant] | 3.03 | 0.975 | 0.97 | 1.01 | 0.861 | 2.66 |
| UUACUACAAACAAUCGGUCUG [Fam1A.1 aminoacylation ribozyme variant] | 1.62 | 1.04 | 0.904 | 0.833 | 0.856 | 1.31 |
| UUACUUCAAACAACCGGUCUG [Fam1A.1 aminoacylation ribozyme variant] | 1.38 | 1.36 | 1.03 | 1.15 | 1.22 | 1.51 |
| UUACUUCAAACAAUCGCUCUG [Fam1A.1 aminoacylation ribozyme variant] | 2.29 | 1.21 | 1.07 | 1.12 | 1.16 | 1.51 |
| UUACUUCAAACAAUCGGACUG [Fam1A.1 aminoacylation ribozyme variant] | 7.94 | 1.08 | 1.26 | 0.854 | 0.969 | 4.92 |
| UUACUUCAAACAAUCGGUAUG [Fam1A.1 aminoacylation ribozyme variant] | 12.4 | 1.16 | 1.02 | 1.02 | 1.3 | 7.05 |
| UUACUUCUAACAAUCGGUCUG [Fam1A.1 aminoacylation ribozyme variant] | 0.907 | 1.08 | 1.09 | 1.08 | 1.11 | 0.836 |
